{"source": "patent US20180021429A1", "about": "“ANTICANCER AGENTS OR ANTIMETASTATIC AGENTS USING FSTL1 AND COMBINATION DRUG THEREOF” (PHARMA FOODS INTERNATIONAL CO., LTD., priority 2015, published 2018)", "molecules": {"B1": {"name": "#6-55: chicken-mouse chimeric anti-FSTL1 antibody clone; variable regions SEQ ID NO: 783 (light), 785 (heavy) (antibody, V domains shown)", "VH": "AVTLDESGGGLQTPGGALSLVCKGSGFTFTSVTMQWVRQAPGKGLEWVASVCSGSSTYYAPAVKGRATISRDNGQSTVRLQLSNLRPEDTGTYYCAKIAGRARWSCTSAAYNIDAWGHGTEVIVSS", "VL": "ASTQPSSVSAIPGETVKITCSGGGNNYGWYQQRSPGSAPVTVIYYNDNRPSNIPSRFSGSTSGSTSTLTITGVQADDEAIYYCGSWDSNTDSGIFGAGTTLTVL", "modifications": "mouse constant regions"}}, "key": {"[1]": {"test_system": "mouse melanoma B16-F10", "assay": "In vivo melanoma B16-F10 model (Example 22)", "parameters": "species or system C57BL/6 mice", "settings": "intraperitoneal 10 mg/kg on days 3 and 6", "method": "The drug efficacy of the anti-FSTL1 antibody was evaluated according to Examples 17 to 20 using other cancer-bearing models of C57BL/6 mice of the same strain as in Snail-positive tumor bone metastasis models. The “mouse melanoma B16-F10” is a parent line of the cell line forced to express Snail, which was transplanted in the bone metastasis models used in the preceding tests.\n1. Experiment Group (n=5) 1. Mouse melanoma B16-F10+control IgG (anti-DNP mAb) 2. Mouse melanoma B16-F10+anti-FSTL mAb (#6-55)\n• Day 0: transplantation of tumor cells (1×10^6 cells subcutaneously & 1×10^6 cells intravenously) • Day 3: intraperitoneal administration of the antibody (first dose, corresponding to 200 μg/mouse=10 mg/kg) • Day 6: intraperitoneal administration of the antibody (second dose, corresponding to 200 μg/mouse=10 mg/kg) • Day 15 various immunological assays\n• Effects on the growth of subcutaneous tumor (calculation of tumor volume by tumor size measurement): measured 6, 10, and 14 days after tumor implantation (FIG. 16A) • Effects on weight loss (FIG. 16B)"}, "[2]": {"test_system": "mouse bone marrow cells", "assay": "Inhibition of induction of MSCs, cancer-associated MSCs and M-MDSCs by FSTL1 in mouse bone marrow cells (Examples 13-15)", "type": "cell-based", "settings": "Example 15: 20 ng/mL FSTL1; antibody 20.0, 10.0, 5.0 or 2.5 μg/ml; 8 days; FIG. 104A", "method": "Mouse bone marrow cells prepared in the same way as in Example 4 were supplemented with 20 ng/mL ([…], #7-34, #8-1, or #8-4), an anti-PD-L1 antibody reported to have an immunosuppression-mitigating effect, or a control antibody anti-DNP antibody and cultured under stimulation. 8 days thereafter, the number of cells was counted while the cells were stained with a PE-Cy5-labeled anti-CD45 antibody, a PE-labeled anti-ALCAM antibody, a FITC-labeled anti-CD271 antibody (Abcam plc, Cat. No. AB62122), a FITC-labeled anti-CD11b antibody (BD Pharmingen/Becton, Dickinson and Company, Cat. No. 553310), and a PE-Cy5-labeled anti-Gr1 antibody (eBioscience, Cat. No. 15-5931) in order to detect MSCs (CD45− negative cells), cancer-associated MSCs (CD45-negative, ALCAM-positive, and CD271-positive cells) which are MSCs increasing in number in association with cancer metastasis, and monocytic myeloid-derived suppressor cells (M-MDSCs: CD11b-positive, Gr1-positive, and ALCAM-positive cells) increasing in number together with cancer-associated MSCs, and the contents of the cells mentioned above were analyzed by flow cytometry using FACScan to calculate the percentage and number of MSCs per culture (FIG. 102). […]\nThe antibody clone (#6-55, #7, #10, #13, or #22) was evaluated for its activity by the same testing method as in Example 13. #6-55 was set as a positive control for activity. […]"}, "[3]": {"test_system": "Panc1-snail+", "assay": "Action of anti-FSTL1 antibody on Panc1-snail+ cells forced to express Snail (invasion, CCR2 and RANKL expression)", "type": "cell-based, human", "settings": "antibody 5 μg/ml", "method": "Cell invasion was evaluated in the presence of the anti-FSTL1 antibody (#6-55, 5 μg/ml) or a control antibody (aHema, 5 μg/ml) in a chamber using Panc1-snail+, a cell line forced to express Snail, instead of the FSTL1-stimulated tumor cells of the preceding paragraph.\n(§1) In this Example, Panc1-snail+ cells were cultured for 3 days in the presence of the added antibody. Then, the expression of CCR2 and RANKL among molecules known as bone metastasis markers was analyzed by flow cytometry. […] The anti-FSTL1 antibody presumably has inhibitory activity against cell invasion (FIG. 50D).\nas §1, with “82D).” for “50D).”"}}, "data": [{"molecule": "B1", "values": [{"measurement": "weight loss", "setting": "[1]", "value": "suppressive activity against weight loss was also exhibited"}, {"measurement": "subcutaneous tumor growth", "setting": "[1]; vs control antibody", "value": "strongly suppressed"}, {"measurement": "inhibitory activity against the induction of MSCs, cancer-associated MSCs, and M-MDSCs by FSTL1", "setting": "[2]", "value": "at the same level"}, {"measurement": "cell invasion", "setting": "[3]", "value": "suppressive activity was able to be confirmed"}]}]}
